Data as given in article PMC5433770, “Effect of N-terminal region of nuclear Drosophila melanogaster small heat shock protein DmHsp27 on function and quaternary structure” (PLoS ONE, 2017).
Positions count from the first letter of the chain named. Names and notes keep the numbering of the source.

B1: Drosophila melanogaster small heat shock protein DmHsp27, wild type (natural protein, UniProt P02518 1-213, looked up)
chain: MSIIPLLHLARELDHDYRTDWGHLLEDDFGFGVHAHDLFHPRRLLLPNTLGLGRRRYSPYERSHGHHNQMSRRASGGPNALLPAVGKDGFQVCMDVSQFKPNELTVKVVDNTVVVEGKHEEREDGHGMIQRHFVRKYTLPKGFDPNEVVSTVSSDGVLTLKAPPPPSKEQAKSERIVQIQQTGPAHLSVKAPAPEAGDGKAENGSGEKMETSK
notes: DmHsp27 (Hsp27), Drosophila melanogaster, wild-type cDNA; also called DmHsp27WT; Drosophila melanogaster Hsp27; source: E. coli BL21 (DE3) pLysS, purified (Ni-NTA, SEC on Superose 6)
B2: DmHsp27 S58D (natural protein, Drosophila melanogaster, UniProt P02518 1-213, looked up)
chain: B1 chain with S58D
notes: DmHsp27 (Hsp27), Drosophila melanogaster, with S58D; also called phosphomimetic mutant; source: E. coli BL21 (DE3) pLysS, purified (Ni-NTA, SEC on Superose 6)
B3: DmHsp27 S75A (natural protein, Drosophila melanogaster, UniProt P02518 1-213, looked up)
chain: B1 chain with S75A
notes: DmHsp27 (Hsp27), Drosophila melanogaster, with S75A; source: E. coli BL21 (DE3) pLysS, purified (Ni-NTA, SEC on Superose 6)
B4: DmHsp27 G30A (natural protein, Drosophila melanogaster, UniProt P02518 1-213, looked up)
chain: B1 chain with G30A
notes: DmHsp27 (Hsp27), Drosophila melanogaster, with G30A; source: E. coli BL21 (DE3) pLysS, purified (Ni-NTA, SEC on Superose 6)
B5: DmHsp27 G32A (natural protein, Drosophila melanogaster, UniProt P02518 1-213, looked up)
chain: B1 chain with G32A
notes: DmHsp27 (Hsp27), Drosophila melanogaster, with G32A; source: E. coli BL21 (DE3) pLysS, purified (Ni-NTA, SEC on Superose 6)
B6: DmHsp27 F29A (natural protein, Drosophila melanogaster, UniProt P02518 1-213, looked up)
chain: B1 chain with F29A
notes: DmHsp27 (Hsp27), Drosophila melanogaster, with F29A; source: E. coli BL21 (DE3) pLysS, purified (Ni-NTA, SEC on Superose 6)
B7: DmHsp27 S58/75A (natural protein, Drosophila melanogaster, UniProt P02518 1-213, looked up)
chain: B1 chain with S58A, S75A
notes: DmHsp27 (Hsp27), Drosophila melanogaster, with S58A and S75A; source: E. coli BL21 (DE3) pLysS, purified (Ni-NTA, SEC on Superose 6)
B8: DmHsp27 F31A (natural protein, Drosophila melanogaster, UniProt P02518 1-213, looked up)
chain: B1 chain with F31A
notes: DmHsp27 (Hsp27), Drosophila melanogaster, with F31A; source: E. coli BL21 (DE3) pLysS, purified (Ni-NTA, SEC on Superose 6)
B9: DmHsp27 S58/75D (natural protein, Drosophila melanogaster, UniProt P02518 1-213, looked up)
chain: B1 chain with S58D, S75D
notes: DmHsp27 (Hsp27), Drosophila melanogaster, with S58D and S75D; also called phosphomimetic mutant; source: E. coli BL21 (DE3) pLysS, purified (Ni-NTA, SEC on Superose 6)
B10: DmHsp27 F29Y (natural protein, Drosophila melanogaster, UniProt P02518 1-213, looked up)
chain: B1 chain with F29Y
notes: DmHsp27 (Hsp27), Drosophila melanogaster, with F29Y; source: E. coli BL21 (DE3) pLysS, purified (Ni-NTA, SEC on Superose 6)
B11: DmHsp27 G30R (natural protein, Drosophila melanogaster, UniProt P02518 1-213, looked up)
chain: B1 chain with G30R
notes: DmHsp27 (Hsp27), Drosophila melanogaster, with G30R; source: E. coli BL21 (DE3) pLysS, purified (Ni-NTA, SEC on Superose 6)
B12: DmHsp27 F31Y (natural protein, Drosophila melanogaster, UniProt P02518 1-213, looked up)
chain: B1 chain with F31Y
notes: DmHsp27 (Hsp27), Drosophila melanogaster, with F31Y; source: E. coli BL21 (DE3) pLysS, purified (Ni-NTA, SEC on Superose 6)
B13: DmHsp27 S58A (natural protein, Drosophila melanogaster, UniProt P02518 1-213, looked up)
chain: B1 chain with S58A
notes: DmHsp27 (Hsp27), Drosophila melanogaster, with S58A; source: E. coli BL21 (DE3) pLysS, purified (Ni-NTA, SEC on Superose 6)
B14: DmHsp27 G32R (natural protein, Drosophila melanogaster, UniProt P02518 1-213, looked up)
chain: B1 chain with G32R
notes: DmHsp27 (Hsp27), Drosophila melanogaster, with G32R; source: E. coli BL21 (DE3) pLysS, purified (Ni-NTA, SEC on Superose 6)
B15: DmHsp27 S75D (natural protein, Drosophila melanogaster, UniProt P02518 1-213, looked up)
chain: B1 chain with S75D
notes: DmHsp27 (Hsp27), Drosophila melanogaster, with S75D; also called phosphomimetic mutant; source: E. coli BL21 (DE3) pLysS, purified (Ni-NTA, SEC on Superose 6)
B16: DmHsp27 with deletion of the first 86 amino acids of the N-terminal region (Del_Nter) (domain or fragment, Drosophila melanogaster, UniProt P02518 87-213, looked up)
chain: KDGFQVCMDVSQFKPNELTVKVVDNTVVVEGKHEEREDGHGMIQRHFVRKYTLPKGFDPNEVVSTVSSDGVLTLKAPPPPSKEQAKSERIVQIQQTGPAHLSVKAPAPEAGDGKAENGSGEKMETSK
notes: DmHsp27 (Hsp27), Drosophila melanogaster, without the first 86 amino acids (N-terminal region); The Del-NTR forward primer carries an ATG before the codon of residue 87, so an added Met probably precedes residue 87 (surmise); also called DmHsp27Del-NTR; source: E. coli BL21 (DE3) pLysS, purified (Ni-NTA, SEC on Superose 6)
B17: DmHsp27 with deletion of the FGFG motif (29-32) (del_FGFG) (natural protein, Drosophila melanogaster, UniProt P02518 1-213, looked up)
chain: MSIIPLLHLARELDHDYRTDWGHLLEDDVHAHDLFHPRRLLLPNTLGLGRRRYSPYERSHGHHNQMSRRASGGPNALLPAVGKDGFQVCMDVSQFKPNELTVKVVDNTVVVEGKHEEREDGHGMIQRHFVRKYTLPKGFDPNEVVSTVSSDGVLTLKAPPPPSKEQAKSERIVQIQQTGPAHLSVKAPAPEAGDGKAENGSGEKMETSK
notes: DmHsp27 (Hsp27), Drosophila melanogaster, without the four residues F29 to G32 (FGFG); also called deletion FGFG (29–32); DmHsp27Del29-32; source: E. coli BL21 (DE3) pLysS, purified (Ni-NTA, SEC on Superose 6)

Target: the molecule itself
Assay: native gel or EMSA; 4–12% gradient native Tris-Glycine gel; samples kept and gel run at room temperature (20°C), 150 V, Coomassie blue stain

| Protein | binding result |
| --- | --- |
| B1 | binds |
| B2 | binds |
| B3 | binds |
| B4 | binds |
| B5 | binds |
| B6 | binds |
| B7 | binds |
| B8 | binds |
| B9 | binds |
| B10 | binds |
| B11 | binds |
| B12 | binds |
| B13 | binds |
| B14 | binds |
| B15 | binds |
| B16 | binds |
| B17 | binds |
